Measured values from patent publication US8790663B2, “Antigenic determinants of human death receptor DR5” (Institute of Basic Medical Sciences, Chinese Academy of …, priority 2009, dated 2014).

Experiments:
AD5-10 [1] = assay: Synthetic peptides binding AD5-10 and blocking its tumoricidal activity on Jurkat cells; format: cell-based, mouse
Description: (§1) The human lymphocyte leukemia Jurkat cells in exponential phase were seeded in the 96-well plate at the density of 2×10^4/well. Then synthetic peptides were sufficiently mixed with AD5-10 according to corresponding concentrations and incubated at 37° C. for 1 h. The mixture was then added to the culture wells containing the tumor cells. CCK-8 agent (Dojindo Laboratories, Kumamoto, Japan) was used and the OD values (wavelength […]) were detected 2 h after the reaction. The OD value of the wells having no cells was set to be “0”, the Relative cell viability=OD value of treated well/OD value of untreated sample×100%.

AD5-10 [2] = assay: Oriented Peptide Array Library: binding of peptides to AD5-10; parameters: species or system mouse; conditions: for binding capabilities to AD5-10 (antigenicity): AD5-10 2 μg/ml
Description: A series of the derivative peptides comprising the core peptide (as shown in Tab. 1 and 2) were synthesized according to the amino acid sequence of human DR5 (NCBI Acc #: NP_671716.1) provided in NCBI protein database. Subsequently, the peptide arrays as said above were spotted on nitrocellulose membranes using an ASP222 SPOT robot workstation (one dot corresponds to one polypeptide of which the concentration is about 5 nmol), the homogenicity of the protein amount was detected with ninhydrin staining before the corresponding detection. The membrane was blocked with 3% BSA in TBS-T solution for 1 h at room temperature and followed by incubation with corresponding specific primary antibodies (the final concentration is 2 μg/ml) at 4° C. over night. The array membrane was then incubated with HRP-conjugated goat anti-mouse polyclonal antibodies for 2 h at room temperature and then chromogenic substrate ECL was added to develop the membrane.

[3] = system: human colon cancer cells HCT116; assay: Tumoricidal activity to human colon cancer cells HCT116 (microscopy, CCK-8); format: cell-based
Description: HCT116 cells were treated with TRAIL, AD5-10 and monoclonal antibodies Adie-1 and Adie-2 of different concentrations. […] The OD value of the wells having no cells was set to be “0”, the Relative cell viability=OD value of treated well/OD value of untreated sample×100%.

[4] = system: human T lymphocyte leukemia Jurkat cells; assay: Cell viability of Jurkat cells (CCK-8); format: cell-based; conditions: different concentrations, 8 hours
Description: as §1

[5] = peptide at different concentrations

## AITQQDLAPQQRA (wild type epitope 2) [wild-type epitope 2]
AD5-10 [1]; peptide 10 μM
  binding to AD5-10 and blocking of its cytotoxicity: can bind to AD5-10 and block its cytotoxicity
AD5-10 [1]; [5]
  binding to AD5-10 and blocking of its cytotoxicity: can bind to AD5-10 and block its cytotoxicity

## ALITQQDLAPQQ (Extended sequence of SEQ ID NO. 1 which extends from the N-terminal of the said amino acid sequence to the C-terminal of the amino acid sequence in accordance with the amino acid sequence of DR5)
AD5-10 [2]
  binding capabilities to AD5-10 (antigenicity): the strongest

## AQITQQDLAPQQRA (wild type epitope 1) [wild-type epitope 1]
AD5-10 [1]; peptide 10 μM
  binding to AD5-10 and blocking of its cytotoxicity: can bind to AD5-10 and block its cytotoxicity
AD5-10 [1]; [5]
  binding to AD5-10 and blocking of its cytotoxicity: can bind to AD5-10 and block its cytotoxicity

## ITQQDLAPQQRA (Extended sequence of SEQ ID NO. 1 which extends from the N-terminal of the said amino acid sequence to the C-terminal of the amino acid sequence in accordance with the amino acid sequence of DR5)
AD5-10 [2]
  binding capabilities to AD5-10 (antigenicity): the strongest

## QDLAP (Antigenic determinants recognized by the mouse anti-human death receptor DR5 monoclonal antibody AD5-10)
AD5-10 [2]
  epitope recognized by AD5-10: shortest amino acid sequence of the epitope recognized by AD5-10

## TRAIL: tumor necrosis factor-related apoptosis inducing ligand, natural ligand for death receptors DR4 and DR5
[3]; 500 ng/ml, 8 h
  morphological changes and cell death characteristics of HCT116 cells observed under microscope: Apparent morphological changes and cell death characteristics
[3]; different concentrations, CCK-8
  cell viability of HCT116 cells: notably reduced with the increase of the treatment concentrations
[4]
  cell viability of Jurkat cells: can inhibit the cell viability of human T lymphocyte leukemia Jurkat cells in a dose-dependent manner

## mutant epitope 1: synthetic peptide of wild-type epitope 1 with the key amino acid residues mutated (AQITQQDAAPQQRA; mutant epitope 1)
AD5-10 [1]; peptide 10 μM
  binding to AD5-10 and blocking of its cytotoxicity: cannot bind to AD5-10

## mutant epitope 2: synthetic peptide of wild-type epitope 2 with the key amino acid residues mutated (AITQQDAAPQQRA; mutant epitope 2)
AD5-10 [1]; peptide 10 μM
  binding to AD5-10 and blocking of its cytotoxicity: cannot bind to AD5-10
